# From patent US7754684B2, “Macromolecular platinum chelates” (priority 2003, dated 2010)
# Columns and labels:
# [1] = Platinum release from PBS (percent small Pt species released from polymer-platinum conjugate); type: physicochemical; conditions: PBS at 37° C.
# Experimental: The compound tested comprised a poly(N-(2-hydroxypropyl)methacrylamide (90%)-co-(N-(linker)-Pt complex)methacrylamide (10%)) polymer and either cis-diammine or 1R,2R-diaminocyclohexane (DACH) as the stable ligands/chelate of the Pt complex. The leaving-ligand comprised an N,O bidentate ligand with amidoaspartate (Asp) or amidomalonate (Ama).
# The percent of small platinum species released over time was measured by dissolving about 30 mg of the polymer-platinum conjugate in 15 mL of phosphate buffered saline (10 mM phosphate, 123 mM Cl^−) and incubating the solution at 37° C. in a water bath. At indicated times, 2.0 mL aliquots were transferred to a centrifugal filter with a 3 kDa nominal molecular weight cutoff (Centricon YM-3 from Millipore) and spun until >1.5 mL of filtrate had accumulated. The timed filtrates and the original solution were analyzed for platinum by ICP-OES. The percent of small Pt species released was determined using the formula: ((ppm Pt in filtrate)/(ppm Pt in stock solution)) X 100.
# [2] = Table 2. Comparison of representative compounds C1-C13 of this invention versus carboplatin.
# From the text: Table printed on a drawing sheet, FIGURE 15
# Title: Table 2. Comparison of representative compounds C1-C13 of this invention versus carboplatin.
# The patent's description of the figure: FIG. 15 is Table 2.
# First reader's note: Relative TGI is an in-vivo tumor growth inhibition class relative to carboplatin; C2, C3 and C5 are printed with 'Ama-Pt' (hyphen) instead of 'Ama=Pt'.
# [3] = system: B16F10 murine melanoma cells; assay: B16F10 murine melanoma tumor growth inhibition in C57BL/6 mice; type: in vivo; conditions: each compound at its MTD (20 mgPt/kg vs. 50 mgPt/Kg), groups of ten mice
# Experimental: (§1) C57BL/6 mice (10 animals per compound treatment group) were dosed with the amount of compound indicated. The mice were inoculated subcutaneously in the right rear flank with 10^6 B16F10 murine melanoma cells. Beginning at day 6 post-implantation, tumor size was measured daily using calipers under light Methfurane anesthesia. The mass of the resulting tumor in milligrams was estimated using the formula W^2(L)/2 where W is the length of the shorter tumor dimension and L is the length of the longer dimension. Treatment was commenced when the tumor was 50-75 mg or larger. Each animal was followed individually so that Day 1 of treatment for each animal was the day on which that animal's tumor reached the appropriate size. The test compounds were administered […] through the tail vein using a volume of 0.2-0.3 mL per 20 grams body weight. The animals were observed and weighed daily prior to dosing to establish the proper dosing volume for that day and such was continued until the end of the study.
# Using the above procedure, a number of exemplary compounds of this invention were compared to carboplatin. […]
# [4] = Maximum tolerated dosage used in the B16F10 murine melanoma model; type: in vivo, C57BL/6 mice; conditions: mice
# Experimental: as §1, with “study. […]” for “study.”
# [5] = Platinum release from PBS (percent small Pt species released from polymer-platinum conjugate); type: physicochemical
substance,measurement,setting,value
poly(HPMA)-GFLG-Asp=Pt(NH3)2 [60a],% Pt Release,[1]; 3 h,1.95%
same,% Pt Release,[1]; 24 h,5.85%
"poly(HPMA)-GG-Ama=Pt=1R,2R-DACH [53b]",% Pt Release,[1]; 3 h,1.3%
same,% Pt Release,[1]; 24 h,5.5%
p(HMPA)-GFLG-Ama=Pt=DACH [C2] [listing 1 of 2 here],Pt release (% at 24 h),[2],2.6 % at 24 h
poly(HPMA)-GGGG-Ama=PtDACH [57b],% Pt Release,[1]; 3 h,0.972%
same,% Pt Release,[1]; 24 h,3.173%
"Poly(HPMA)-GG-Asp=Pt=1R,2R-DACH [54b]",% Pt Release,[1]; 3 h,3.20%
same,% Pt Release,[1]; 24 h,10.68%
"poly(HPMA)-GGG-Ama=Pt=1R, 2R-DACH [C13] [listing 1 of 2 here]","delay in tumor growth, C13 versus C2 (FIG. 14)",[3],prolonged delay in tumor growth compared to compound C2
same,maximum tolerated dosage (MTD),[4],20 mgPt/kg
p(HMPA)-GFLG-Ama=Pt=DACH [C2] [listing 2 of 2 here],maximum tolerated dosage (MTD),[4],50 mgPt/kg
poly(HPMA)-GFLG-C3-Sulf-Ama=Pt(NH3)2 [75a],% Pt Release,[1]; 3 h,3.02%
same,% Pt Release,[1]; 24 h,5.44%
poly(HPMA)-GG-Asp=Pt(NH3)2 [54a],Pt release in PBS at 38.C,[5]; 3 hr,3.92%
same,Pt release in PBS at 38.C,[5]; 24 hr,11.02%
"poly(HPMA)-GGG-Ama=Pt=1R, 2R-DACH [C13] [listing 2 of 2 here]",Pt release (% at 24 h),[2],3.6 % at 24 h
poly(HPMA)-GG-Ama=Pt(NH3)2 [53a],% Pt Release,[1]; 3 h,1.4%
same,% Pt Release,[1]; 24 h,4.6%
